Reference: US20230287120A1 (ALLOGENE THERAPEUTICS, published 2023)
Blank lines part the entries; values can stand above or below the binder they belong to.

How the values were obtained:
[1] = target: T1, full length human DLL3 with N-terminal HA tag, expressed on CHO cells (human, UniProt Q9NYJ7 27-618); test: flow cytometry on CHO cells with full length and truncated human DLL3; column Binds to DLL3 Domain
T1 construct: also called Human DLL3 complete ECD
T1 sequence: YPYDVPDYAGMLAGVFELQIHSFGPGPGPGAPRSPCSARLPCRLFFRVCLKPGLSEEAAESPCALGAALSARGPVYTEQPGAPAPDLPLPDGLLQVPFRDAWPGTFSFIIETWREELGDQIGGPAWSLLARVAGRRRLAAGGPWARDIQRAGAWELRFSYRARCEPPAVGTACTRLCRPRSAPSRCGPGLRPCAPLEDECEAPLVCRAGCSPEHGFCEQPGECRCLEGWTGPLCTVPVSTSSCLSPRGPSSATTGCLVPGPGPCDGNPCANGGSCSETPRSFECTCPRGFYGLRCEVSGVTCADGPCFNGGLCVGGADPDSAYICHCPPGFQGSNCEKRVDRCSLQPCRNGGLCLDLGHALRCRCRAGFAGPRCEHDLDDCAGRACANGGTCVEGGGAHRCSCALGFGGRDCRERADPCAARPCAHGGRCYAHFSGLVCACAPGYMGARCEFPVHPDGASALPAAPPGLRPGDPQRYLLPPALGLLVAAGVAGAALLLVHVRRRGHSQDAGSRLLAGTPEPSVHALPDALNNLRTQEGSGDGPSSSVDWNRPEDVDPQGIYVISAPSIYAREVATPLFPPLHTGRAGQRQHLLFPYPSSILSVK
Procedure: The samples were analyzed by flow cytometry. […] Signals from the PE channel are shown on the x-axis and counts are shown on the y-axis.

[2] = target: T2, Flag tagged recombinant DLL3 (Adipogen) (Homo sapiens (Human), UniProt Q9NYJ7 27-492); test: flow cytometry, primary T cells with the CAR, Flag tagged recombinant DLL3, PE anti-Flag
T2 construct: Bought reagent; also called Flag-DLL3
T2 sequence: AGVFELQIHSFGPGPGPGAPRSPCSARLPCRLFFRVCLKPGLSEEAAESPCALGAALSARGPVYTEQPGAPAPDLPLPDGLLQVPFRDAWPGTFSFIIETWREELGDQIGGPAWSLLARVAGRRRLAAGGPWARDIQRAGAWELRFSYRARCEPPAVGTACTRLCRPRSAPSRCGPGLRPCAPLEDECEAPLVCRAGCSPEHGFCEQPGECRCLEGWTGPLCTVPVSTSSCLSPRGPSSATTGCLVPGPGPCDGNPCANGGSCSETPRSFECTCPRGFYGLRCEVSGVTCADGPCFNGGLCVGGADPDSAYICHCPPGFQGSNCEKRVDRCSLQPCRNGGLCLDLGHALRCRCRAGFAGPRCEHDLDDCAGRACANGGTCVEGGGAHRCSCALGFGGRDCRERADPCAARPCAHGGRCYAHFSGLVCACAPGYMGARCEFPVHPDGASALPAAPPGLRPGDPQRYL

[3] = target: T2, Flag tagged recombinant DLL3 (Adipogen); test: flow cytometry, primary T cells with the CAR, 1 ug/ml Flag tagged recombinant DLL3, PE anti-Flag
Procedure: (§1) To determine the percentage of T cells that were successfully transduced with DLL3 CAR, T cells were first incubated with 1 ug/ml Flag tagged recombinant DLL3 (Adipogen) in PBS+1% BSA for 20 minutes at 4 C.

[4] = target: T2, Flag tagged recombinant DLL3 (Adipogen); test: flow cytometry, percent of T cells that recognise recombinant DLL3, Donor 116
Procedure: as §1

[5] = target: T2, Flag tagged recombinant DLL3 (Adipogen); test: flow cytometry, percent of T cells that recognise recombinant DLL3, Donor 419
Procedure: as §1

B1: anti-DLL3 antibody 4F9 (antibody, V domains shown)
VH: QVQLQQWGAGLLKPSETLSLTCAVYGGSFSGYYWTWIRQPPGKGLEWIGEITHSGSTNYNPSLKSRVSISVDTSKNQFSLKLSSVTAADTAVYYCARGEYGSGSRFDYWGQGTLVTVSS
VL: AIQMTQSPSSLSASVGDRVAITCRASQGIRDDLGWYQQKPGKAPKLLIYAASSLQSGVPSRFSGSGSDTDFTLTISSLQPEDFATYYCLQDYDYPLTFGGGTKVEIK
- binding result [1]: binds

B3: 2G1 R2S (other)
CAR: GGGGSCPYSNPSLCGGGGSCPYSNPSLCGGGGSQLQLQESGPGLVKPSETLSLTCTVSGGSISSSSYYWGWIRQPPGKGLEWIGSIYYSGNIYHNPSLKSRVSISVDTSKNQFSLRLSSVTAADTAVYYCAREIIVGATHFDYWGQGTLVTVSSGGGGSGGGGSGGGGSGGGGSAIQMTQSPSSLSASVGDRVTITCRASQGIRNDLGWYQQKPGKAPELLIYAASSLQSGVPSRFSGSGSGTDFTLTISSLQPEDFATYYCLQDYNYPLTFGPGTKVDIKTTTPAPRPPTPAPTIASQPLSLRPEACRPAAGGAVHTRGLDFACDIYIWAPLAGTCGVLLLSLVITKRGRKKLLYIFKQPFMRPVQTTQEEDGCSCRFPEEEEGGCELRVKFSRSADAPAYQQGQNQLYNELNLGRREEYDVLDKRRGRDPEMGGKPRRKNPQEGLYNELQKDKMAEAYSEIGMKGERRRGKGHDGLYQGLSTATKDTYDALHMQALPPR
notes: member of group m44; also called 2G1-R2S anti-DLL3 CAR with safety switch, on primary T cells
- Rec-DLL3+ gate, percent of live CD3+ cells [2]: 66%

B6: 2G1 RSR (other)
CAR: GGGGSCPYSNPSLCGGGGSQLQLQESGPGLVKPSETLSLTCTVSGGSISSSSYYWGWIRQPPGKGLEWIGSIYYSGNIYHNPSLKSRVSISVDTSKNQFSLRLSSVTAADTAVYYCAREIIVGATHFDYWGQGTLVTVSSGGGGSGGGGSGGGGSGGGGSAIQMTQSPSSLSASVGDRVTITCRASQGIRNDLGWYQQKPGKAPELLIYAASSLQSGVPSRFSGSGSGTDFTLTISSLQPEDFATYYCLQDYNYPLTFGPGTKVDIKGGGGSCPYSNPSLCGGGGSTTTPAPRPPTPAPTIASQPLSLRPEACRPAAGGAVHTRGLDFACDIYIWAPLAGTCGVLLLSLVITKRGRKKLLYIFKQPFMRPVQTTQEEDGCSCRFPEEEEGGCELRVKFSRSADAPAYQQGQNQLYNELNLGRREEYDVLDKRRGRDPEMGGKPRRKNPQEGLYNELQKDKMAEAYSEIGMKGERRRGKGHDGLYQGLSTATKDTYDALHMQALPPR
notes: member of group m44; also called 2G1-RSR anti-DLL3 CAR with safety switch, on primary T cells
- Rec-DLL3+ gate, percent of live CD3+ cells [2]: 60.7%

B7: 3F2 (other)
CAR: QVQLQESGPGLVKPSGTLSLTCAVSGGSISSNNWWSWVRQPPGKGLEWIGDIHHSGSTNYKPSLKSRVTISVDKSKNQFSLNLISVTAADTAVYYCAREAGGYFDYWGQGILVTVSSGGGGSGGGGSGGGGSGGGGSDIQMTQSPSTLSASVGDRVTITCRASQSISSWLAWYQQKPGKAPKLLISKASSLESGVPSRFSGSGSGPEFTLTISSLQPADFATYYCQQYNSYSTFGQGTKLEIKTTTPAPRPPTPAPTIASQPLSLRPEACRPAAGGAVHTRGLDFACDIYIWAPLAGTCGVLLLSLVITKRGRKKLLYIFKQPFMRPVQTTQEEDGCSCRFPEEEEGGCELRVKFSRSADAPAYQQGQNQLYNELNLGRREEYDVLDKRRGRDPEMGGKPRRKNPQEGLYNELQKDKMAEAYSEIGMKGERRRGKGHDGLYQGLSTATKDTYDALHMQALPPR
notes: also called anti-DLL3 CAR with 3F2 scFv, on primary T cells
- Rec-DLL3 gate, percent of live CD3+ cells [3]: 58%
- Transduction efficiency [4]: 16.3%
- Transduction efficiency [5]: 12.2%

B10: anti-DLL3 antibody 16H7 (antibody, V domains shown)
VH: QVQLQQWGAGLLKPSETLSLTCAVFGGSFSGDYWSWIRQPPGKGLEWIGEINHSGITSFNPSLKSRVTISVDTSKNQFSLKLSSVTAADTAVYYCARGELGIPDNWGQGTLVTVSS
VL: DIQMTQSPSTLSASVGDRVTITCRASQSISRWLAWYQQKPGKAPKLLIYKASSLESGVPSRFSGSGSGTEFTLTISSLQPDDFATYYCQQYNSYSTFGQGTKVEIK
- binding result [1]: binds

Next, values leading:

- binding result [1]: binds
B2: anti-DLL3 antibody 4G9 (antibody, V domains shown)
VH: QVQLQQWGAGLLKPSETLSLTCAVYGGSFSGYYWSWIRQPPGKGLEWIGEITHSGSTNYNPSLKSRVSISVDTSKNQFSLKLSSVTAADTAVYYCARGEYGSGSRFDYWGQGTLVTVSS
VL: AIQMTQSPSSLSASVGDRVALTCRASQGIRDDLGWYQQKPGKAPKLLIYAASSLQSGVPSRFSGSGSDTDFTLTISSLQPEDFATYYCLQDYDYPLTFGGGTKVEIK

- Rec-DLL3+ gate, percent of live CD3+ cells [2]: 51.9%
B4: 4H8 RSR (other)
CAR: GGGGSCPYSNPSLCGGGGSQVQLQQSGPGLVKPSQTLSLTCAISGDSVSSNSATWNWIRQSPSRGLEWLGRTYYRSKWYDDYAVSVKSRITINPDTSKNHLSLHLNSVTPEDTAVYYCAGGGLVGAPDGFDVWGQGTMVTVSSGGGGSGGGGSGGGGSGGGGSQSVLTQPPSASGTPGQRVTISCSGSSSNIGSDPVNWYQQLPGTAPKLLIYSNNQRPSGVPDRFSGSKSGTSASLAISGLQSEDEADYYCSAWDDSLNGYVFGTGTKVTVLGGGGSCPYSNPSLCGGGGSTTTPAPRPPTPAPTIASQPLSLRPEACRPAAGGAVHTRGLDFACDIYIWAPLAGTCGVLLLSLVITKRGRKKLLYIFKQPFMRPVQTTQEEDGCSCRFPEEEEGGCELRVKFSRSADAPAYQQGQNQLYNELNLGRREEYDVLDKRRGRDPEMGGKPRRKNPQEGLYNELQKDKMAEAYSEIGMKGERRRGKGHDGLYQGLSTATKDTYDALHMQALPPR
notes: member of group m45; also called 4H8-RSR anti-DLL3 CAR with safety switch, on primary T cells

- Rec-DLL3 gate, percent of live CD3+ cells [3]: 59.1%
- Transduction efficiency [4]: 68.6%
- Transduction efficiency [5]: 43.3%
B5: 17A2 (other)
CAR: QVQLQESGPGLVKPSGTLSLTCVVFGDSISSSNWWSWVRQPPGKGLEWIGEVFHSGSTNYNPSLKSRVTISVDKSKNQFSLKLSSVTAADTAVYYCARAAVAGALDYWGQGTLVTVSSGGGGSGGGGSGGGGSGGGGSDIVMTQSPDSLAVSLGERATINCKSSQSVLYSSNNKNYLAWYQQKPGQPPNLLVYWASTRESGVPDRFSGAGSGTDFTLTISSLQAEDVAVYYCQQYYGTSWTFGQGTKVEIKTTTPAPRPPTPAPTIASQPLSLRPEACRPAAGGAVHTRGLDFACDIYIWAPLAGTCGVLLLSLVITKRGRKKLLYIFKQPFMRPVQTTQEEDGCSCRFPEEEEGGCELRVKFSRSADAPAYQQGQNQLYNELNLGRREEYDVLDKRRGRDPEMGGKPRRKNPQEGLYNELQKDKMAEAYSEIGMKGERRRGKGHDGLYQGLSTATKDTYDALHMQALPPR
notes: also called anti-DLL3 CAR with 17A2 scFv, on primary T cells

- binding result [1]: binds
B8: anti-DLL3 antibody 11H7 (antibody, V domains shown)
VH: QVQLQQWGAGLLKPSETLSLTCAVYGGSFSAYYWNWIRQPPGKGLEWIGEINHSGSTNYNPSLKSRVTISVDTSKNQFSLNLTSLTAADTAVYYCARGLDSSGWYPFDYWGQGTLVTVSS
VL: DIQMTQSPSSVSASVGDRVTITCRASQGISSWLAWYQQKPGKAPKLLIYAASSLQSGVPSRFSGSGSGTDFTLTISSLQPEDFATYYCQQADSFPFTFGPGTKVDIK

- binding result [1]: binds
B9: anti-DLL3 antibody 9H12-K (antibody, V domains shown)
VH: QVQLVQSGAEVKKPGASVKVSCKASGYTFTGYSIHWVRQAPGQGLEWMGWINPNSGGTFYAQKFQGRVTMTRDTSISTVYMELSRLRSDDTAVYYCARDGWGDYYYYGLDVWGQGTTVTVSL
VL: DIQMTQSPSSVSASVGDRVTITCRASQDISSWLAWYQQKPGKAPKLLIYTASSLQGGVPSRFSGSGSGTDFTLTISSLQPEDLATYSCQQANVFPYTFGQGTKLEIK

- binding result [1]: binds
B11: anti-DLL3 antibody 2C3 (antibody, V domains shown)
VH: QVQLQQWGGGLLKPSETLSLTCAVYGGSSSGNYWSWIRQPPGKRLEWIGEINHSGTTSYNPSLKSRVTISVDTSKNQFSLKLSSVTAADTAVYYCARGELGIADSWGQGTLVTVSS
VL: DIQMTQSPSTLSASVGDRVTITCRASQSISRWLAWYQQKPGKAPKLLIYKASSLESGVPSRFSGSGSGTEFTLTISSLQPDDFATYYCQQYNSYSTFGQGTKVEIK
